Test results as given in patent EP3821250B1.

How the values were obtained:
[1] = biological target: anti-A2M antibody (MAB) labeled with a donor fluorophore; assay: TR-FRET competition against acceptor-labeled A2M in whole blood, multiplex calibrators (VCAM-1 + A2M), 5 min; A2M 1000 ug/mL (FIG. 2I)
[2] = biological target: anti-A2M antibody (MAB) labeled with a donor fluorophore; assay: TR-FRET competition against acceptor-labeled A2M in whole blood, multiplex calibrators (VCAM-1 + A2M), 5 min; A2M 2000 ug/mL (FIG. 2I)
[3] = biological target: anti-A2M antibody (MAB) labeled with a donor fluorophore; assay: TR-FRET competition against acceptor-labeled A2M in whole blood, singleplex calibrators, 30 min; A2M 2000 ug/mL (FIG. 2I)
[4] = biological target: anti-A2M antibody (MAB) labeled with a donor fluorophore; assay: TR-FRET competition against acceptor-labeled A2M in whole blood, multiplex calibrators, 5 min; A2M 0 ug/mL, reference (FIG. 2I)
[5] = biological target: anti-A2M antibody (MAB) labeled with a donor fluorophore; assay: TR-FRET competition against acceptor-labeled A2M in whole blood, singleplex calibrators, 5 min; A2M 500 ug/mL (FIG. 2I)
[6] = biological target: anti-A2M antibody (MAB) labeled with a donor fluorophore; assay: TR-FRET competition against acceptor-labeled A2M in whole blood, singleplex calibrators, 30 min; A2M 200 ug/mL (FIG. 2I)
[7] = biological target: anti-A2M antibody (MAB) labeled with a donor fluorophore; assay: TR-FRET competition against acceptor-labeled A2M in whole blood, multiplex calibrators (VCAM-1 + A2M), 30 min; A2M 500 ug/mL (FIG. 2I)
[8] = biological target: anti-A2M antibody (MAB) labeled with a donor fluorophore; assay: TR-FRET competition against acceptor-labeled A2M in whole blood, multiplex calibrators (VCAM-1 + A2M), 5 min; A2M 500 ug/mL (FIG. 2I)
[9] = biological target: anti-A2M antibody (MAB) labeled with a donor fluorophore; assay: TR-FRET competition against acceptor-labeled A2M; A2M calibrator 500 ug/mL; mean of 4 replicates (FIG. 2G)
[10] = biological target: anti-A2M antibody (MAB) labeled with a donor fluorophore; assay: TR-FRET competition against acceptor-labeled A2M in whole blood, singleplex calibrators, 30 min; A2M 1000 ug/mL (FIG. 2I)
[11] = biological target: anti-A2M antibody (MAB) labeled with a donor fluorophore; assay: TR-FRET competition against acceptor-labeled A2M in whole blood, singleplex calibrators, 30 min; A2M 0 ug/mL, reference (FIG. 2I)
[12] = biological target: anti-A2M antibody (MAB) labeled with a donor fluorophore; assay: TR-FRET competition against acceptor-labeled A2M in whole blood, multiplex calibrators (VCAM-1 + A2M), 5 min; A2M 4000 ug/mL (FIG. 2I)
[13] = biological target: anti-A2M antibody (MAB) labeled with a donor fluorophore; assay: TR-FRET competition against acceptor-labeled A2M in whole blood, multiplex calibrators (VCAM-1 + A2M), 30 min; A2M 1000 ug/mL (FIG. 2I)
[14] = biological target: anti-A2M antibody (MAB) labeled with a donor fluorophore; assay: TR-FRET competition against acceptor-labeled A2M in whole blood, singleplex calibrators, 5 min; A2M 0 ug/mL, reference (FIG. 2I)
[15] = biological target: anti-A2M antibody (MAB) labeled with a donor fluorophore; assay: TR-FRET competition against acceptor-labeled A2M in whole blood, singleplex calibrators, 5 min; A2M 200 ug/mL (FIG. 2I)
[16] = biological target: anti-A2M antibody (MAB) labeled with a donor fluorophore; assay: TR-FRET competition against acceptor-labeled A2M in whole blood, singleplex calibrators, 30 min; A2M 500 ug/mL (FIG. 2I)
[17] = biological target: anti-A2M antibody (MAB) labeled with a donor fluorophore; assay: TR-FRET competition against acceptor-labeled A2M in whole blood, multiplex calibrators (VCAM-1 + A2M), 30 min; A2M 2000 ug/mL (FIG. 2I)
[18] = biological target: anti-A2M antibody (MAB) labeled with a donor fluorophore; assay: TR-FRET competition against acceptor-labeled A2M; A2M calibrator 4000 ug/mL; mean of 4 replicates (FIG. 2G)
[19] = biological target: anti-A2M antibody (MAB) labeled with a donor fluorophore; assay: TR-FRET competition against acceptor-labeled A2M; A2M calibrator 0 ug/mL, reference; mean of 4 replicates (FIG. 2G)
[20] = biological target: anti-A2M antibody (MAB) labeled with a donor fluorophore; assay: TR-FRET competition against acceptor-labeled A2M in whole blood, multiplex calibrators (VCAM-1 + A2M), 30 min; A2M 200 ug/mL (FIG. 2I)
[21] = biological target: anti-A2M antibody (MAB) labeled with a donor fluorophore; assay: TR-FRET competition against acceptor-labeled A2M in whole blood, singleplex calibrators, 30 min; A2M 4000 ug/mL (FIG. 2I)
[22] = biological target: anti-A2M antibody (MAB) labeled with a donor fluorophore; assay: TR-FRET competition against acceptor-labeled A2M in whole blood, singleplex calibrators, 5 min; A2M 1000 ug/mL (FIG. 2I)
[23] = biological target: anti-A2M antibody (MAB) labeled with a donor fluorophore; assay: TR-FRET competition against acceptor-labeled A2M in whole blood, singleplex calibrators, 5 min; A2M 4000 ug/mL (FIG. 2I)
[24] = biological target: anti-A2M antibody (MAB) labeled with a donor fluorophore; assay: TR-FRET competition against acceptor-labeled A2M in whole blood, multiplex calibrators (VCAM-1 + A2M), 30 min; A2M 4000 ug/mL (FIG. 2I)
[25] = biological target: anti-A2M antibody (MAB) labeled with a donor fluorophore; assay: TR-FRET competition against acceptor-labeled A2M; A2M calibrator 2000 ug/mL; mean of 4 replicates (FIG. 2G)
[26] = biological target: anti-A2M antibody (MAB) labeled with a donor fluorophore; assay: TR-FRET competition against acceptor-labeled A2M in whole blood, multiplex calibrators (VCAM-1 + A2M), 5 min; A2M 200 ug/mL (FIG. 2I)
[27] = biological target: anti-A2M antibody (MAB) labeled with a donor fluorophore; assay: TR-FRET competition against acceptor-labeled A2M in whole blood, multiplex calibrators, 30 min; A2M 0 ug/mL, reference (FIG. 2I)
[28] = biological target: anti-A2M antibody (MAB) labeled with a donor fluorophore; assay: TR-FRET competition against acceptor-labeled A2M; A2M calibrator 1000 ug/mL; mean of 4 replicates (FIG. 2G)
[29] = biological target: anti-A2M antibody (MAB) labeled with a donor fluorophore; assay: TR-FRET competition against acceptor-labeled A2M in whole blood, singleplex calibrators, 5 min; A2M 2000 ug/mL (FIG. 2I)
[30] = biological target: anti-A2M antibody (MAB) labeled with a donor fluorophore; assay: TR-FRET competition against acceptor-labeled A2M; A2M calibrator 200 ug/mL; mean of 4 replicates (FIG. 2G)

Substance: A2M (alpha-2-macroglobulin), unlabeled analyte / calibrator
- FRET signal relative to zero calibrator (quantity not given) [1]: 0.58
- FRET signal relative to zero calibrator (quantity not given) [2]: 0.45
- FRET signal relative to zero calibrator (quantity not given) [3]: 0.43
- FRET signal relative to zero calibrator (quantity not given) [4]: 1
- FRET signal relative to zero calibrator (quantity not given) [5]: 0.72
- FRET signal relative to zero calibrator (quantity not given) [6]: 0.88
- FRET signal relative to zero calibrator (quantity not given) [7]: 0.74
- FRET signal relative to zero calibrator (quantity not given) [8]: 0.71
- F/B Mean [9]: 0.795
- FRET signal relative to zero calibrator (quantity not given) [10]: 0.59
- FRET signal relative to zero calibrator (quantity not given) [11]: 1
- FRET signal relative to zero calibrator (quantity not given) [12]: 0.34
- FRET signal relative to zero calibrator (quantity not given) [13]: 0.56
- FRET signal relative to zero calibrator (quantity not given) [14]: 1
- FRET signal relative to zero calibrator (quantity not given) [15]: 0.88
- FRET signal relative to zero calibrator (quantity not given) [16]: 0.71
- FRET signal relative to zero calibrator (quantity not given) [17]: 0.45
- F/B Mean [18]: 0.393
- F/B Mean [19]: 1
- FRET signal relative to zero calibrator (quantity not given) [20]: 0.87
- FRET signal relative to zero calibrator (quantity not given) [21]: 0.33
- FRET signal relative to zero calibrator (quantity not given) [22]: 0.58
- FRET signal relative to zero calibrator (quantity not given) [23]: 0.33
- FRET signal relative to zero calibrator (quantity not given) [24]: 0.33
- F/B Mean [25]: 0.532
- FRET signal relative to zero calibrator (quantity not given) [26]: 0.83
- FRET signal relative to zero calibrator (quantity not given) [27]: 1
- F/B Mean [28]: 0.666
- FRET signal relative to zero calibrator (quantity not given) [29]: 0.43
- F/B Mean [30]: 0.905
